Assay results published in article PMC6745524, “Diverse roles of TssA‐like proteins in the assembly of bacterial type VI secretion systems” (The EMBO Journal, 2019).

Target: the molecule itself
Experiment: cryo-EM structure

B1: TssAVC (TssA of Vibrio cholerae, VCA0119), purified (natural protein)
chain: MEMTEYRQCVAKPISSSNPVGERLVDHPLFDFIEDQMMKVGSLSHASVQWDEVEHSTLKLLGEQSKDIKLLVYLLQCLHNQVTPTRLITSFAVMSEFLNQYWNDSYPAPGPRGNLPRRKFFSQMAQRFTTVIEKFDFHHLDEADRQALQAAVEEWQQAVEKQGLSSELVESVVVRITAEIKRAEQRQQVTAQSSAERETPSAATPSPAASMVVDHSSDKAAKQTLLKVADFLAEQEFGIALSIRLRRFAVWGSITSLPDHKPDGETLLRGMQADRVKDYQDQLRHPDLALWRKVEQSLTMAPYWFEGQWMSYTIAQQLGKSDWCQAIAEETQQFLRRLPSLLELKFKGGEPFVSDSVKEWLASVGQSQGAAGQSVGGDWQEKRKEAFQLAKEGGIAVALSMLNDGLVSAVEPRDKFYWRLLSADLLRANHLDAMAGEQYQTLLNQVTTLSVPEWEPSLVEQIQRYTTSE
notes: The His10 tag was removed with TEV protease; Only the CTD (G376-T466) is built in the atomic model; also called TsaC (proposed name); not shown: His10, N-terminal, cleaved; copies: 12
stoichiometry N: 12
